In test [1] the target is α-synuclein (αSyn) amyloid fibrils (UniProt P37840). Kind of test: co-sedimentation; αSyn fibrils 20 µM (monomer) with DNAJB1 8 µM in low-salt HD buffer (50 mM HEPES, 2 mM DTT, pH 7.50), 30 min at 30 °C; 17,000 g 30 min; pellet and supernatant on SDS-PAGE, densitometry.
For test [2] the target is unchanged. The experiment in a line: co-sedimentation; αSyn fibrils 20 µM (monomer) with DNAJB1 8 µM in HKMD buffer (50 mM HEPES, 50 mM KCl, 5 mM MgCl2, 2 mM DTT, pH 7.50), 30 min at 30 °C; 17,000 g 30 min; pellet and supernatant on SDS-PAGE, densitometry.

Drawing on publication PMC11955550, this text covers percent bound for one substance.

For “wild-type DNAJB1 (from UniProt P25685 1-340) (natural protein)”, the percent bound was determined as 80% in test [1] and 40% in test [2].
